Assay results as given in patent US20250282866A1 (VIGIL NEUROSCIENCE, published 2025).
Where a chain is given by its changes, count along the chain named.

B1: V17 (antibody, V domains shown)
VH: EVQLVQSGAEVKKPGESLKISCKGSGYSFGSYWIAWVRQMPGKGLEWMGIIYPGDSDTRYSPSFQGQVTISADKSISTAYLQWSSLKASDTAMYFCARSRTFYYDSSDYFDYWGQGTLVTVSS
VL: DIQMTQSPSSVSASVGDRVTITCRASQGISSWLAWYQQKPGKAPKLLIYAASSRQNGVPSRFSGSGSGTDFTLTISSLQPEDFATYFCQQADSSPRTFGQGTKLEIK
B2: V24 (antibody, V domains shown)
VH: B1 VH with G30T, T58V
VL: B1 VL with R54L, N56K, S94F, R96H
B3: V25 (antibody, V domains shown)
VH: B1 VH with I50L
VL: B1 VL with R54L, Q55A, S94M
B4: V26 (antibody, V domains shown)
VH: B1 VH with G30T, A35G, I50T, S99Q, F102M, Y112A
VL: B1 VL with R54L, N56R, S94Y
B5: V27 (antibody, V domains shown)
VH: B1 VH with G30T, S61A, A97V
VL: B1 VL with R54L, N56R, S94F
B6: V28 (antibody, V domains shown)
VH: B1 VH with G30Q, I50T, S99Q, Y103F
VL: B1 VL with R54L, N56S, S94L
B7: V29 (antibody, V domains shown)
VH: B1 VH with G30K, S99Q
VL: B1 VL with R54L, S94F
B8: V36 (antibody, V domains shown)
VH: B1 VH with G30T, I34L
VL: B1 VL with S94Y
B9: V37 (antibody, V domains shown)
VH: B1 VH with F29H, G30T, Q65A
VL: B1 VL with R54L, N56W, S94Y
B10: V38 (antibody, V domains shown)
VH: B1 VH with T58V, S99Q
VL: B1 VL with S94H
B11: V39 (antibody, V domains shown)
VH: B1 VH with S61N, S99G
VL: B1 VL with R54L, Q55V
B12: V40 (antibody, V domains shown)
VH: B1 VH with T58V, S99Q, F110S
VL: B1 VL with R54L, N56L, S93R, S94F
B13: V41 (antibody, V domains shown)
VH: B1 VH with G30T, I50T, S99Q
VL: B1 VL with R54L, S94F
B14: V48 (antibody, V domains shown)
VH: B1 VH with T58V, S99M
VL: B1 VL with R54L, N56T, S94L
B15: V49 (antibody, V domains shown)
VH: B1 VH with G30N, I50T, Y60L
VL: B1 VL with S94Y
B16: V50 (antibody, V domains shown)
VH: B1 VH with I50V, S99Q, F110L
VL: B1 VL with S94L
B17: V51 (antibody, V domains shown)
VH: B1 VH with G30T, T58V, S99G, Y112N
VL: B1 VL with S94F
B18: V52 (antibody, V domains shown)
VH: B1 VH with G30E, S99G
VL: B1 VL with R54L, N56R, S93R, S94F
B19: V53 (antibody, V domains shown)
VH: B1 VH with G30T, S63H, S99Q
VL: B1 VL with R54L, S94F
B20: V60 (antibody, V domains shown)
VH: B1 VH with S28H, G30T, T58V, S99Q, F110S
VL: B1 VL with R54L, N56R, Q89G, S94F
B21: V61 (antibody, V domains shown)
VH: B1 VH with G30S, S61N, S99G
VL: B1 VL with R54L, Q55V, S94L
B22: V62 (antibody, V domains shown)
VH: B1 VH with S61A, S99Q, D108G
VL: B1 VL with R54L, N56R, Q89G, S94F
B23: V63 (antibody, V domains shown)
VH: B1 VH with G30R
VL: B1 VL with R54L, N56R, S93R, S94F
B24: V64 (antibody, V domains shown)
VH: B1 VH with G30Q, S99G
VL: B1 VL with R54L, Q55A, S94Y
B25: V65 (antibody, V domains shown)
VH: B1 VH with G30T
VL: B1 VL with R54L, S94F
B26: V72 (antibody, V domains shown)
VH: B1 VH with G30T, A35G, S99G
VL: B1 VL with R54L, Q55V, S94Y
B27: V73 (antibody, V domains shown)
VH: B1 VH with S63G, S99G
VL: B1 VL with S94Y
B28: V74 (antibody, V domains shown)
VH: B1 VH with G30A, T58V, S99G
VL: B1 VL with R54L, N56L, S94F
B29: V75 (antibody, V domains shown)
VH: B1 VH with G30T, S99G
VL: B1 VL with R54L, N56A, S94Y
B30: V76 (antibody, V domains shown)
VH: B1 VH with S63E, S99Q, F110S
VL: B1 VL with R54L, N56K, T69R, S94F

molecular target: T1, human TREM2 (human, UniProt Q9NZC2 19-174, limits assumed); test: 2nd screen 2 nM
T1 construct: also called triggering receptor expressed on myeloid cells 2
T1 sequence: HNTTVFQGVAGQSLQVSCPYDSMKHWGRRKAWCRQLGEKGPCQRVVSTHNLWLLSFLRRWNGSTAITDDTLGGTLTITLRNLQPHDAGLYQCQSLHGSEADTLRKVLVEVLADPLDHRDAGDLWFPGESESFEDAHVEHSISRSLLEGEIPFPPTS

Binder	Binding Signal (fold over 6E7 Parental antibody) [fold]
B1	4.22
B2	1.42
B3	3.15
B4	2.83
B5	5.67
B6	2.63
B7	0.84
B8	4
B9	3.69
B10	3.44
B11	5.11
B12	3.41
B13	0.58
B14	2.3
B15	5.02
B16	3.39
B17	1.83
B18	1.78
B19	0.66
B20	3.35
B21	3.63
B22	1.87
B23	4.91
B24	4.88
B25	1.29
B26	2.5
B27	4.17
B28	2.54
B29	3.74
B30	4.34

molecular target: T1, human TREM2; test: 2nd screen 10 nM

Binder	Binding Signal (fold over 6E7 Parental antibody) [fold]
B1	5.51
B2	2.9
B3	4.7
B4	3.47
B5	5.69
B6	3.61
B7	1.67
B8	3.44
B9	3.49
B10	4.36
B11	5.81
B12	4.16
B13	1.72
B14	2.54
B15	6.58
B16	4.16
B17	3.18
B18	3.09
B19	1.17
B20	3.63
B21	5.22
B22	2.89
B23	3.71
B24	5.48
B25	2.75
B26	4.01
B27	5.44
B28	4.01
B29	4.52
B30	4.93

molecular target: T1, human TREM2; test: 1st screen (110 nM or 10 nM)

Binder	Binding Signal (fold over 6E7 Parental antibody) [fold]
B1	5.37
B2	2.64
B3	4.23
B4	3.57
B5	5.5
B6	3.08
B7	1.53
B8	3.38
B9	3.46
B10	4.34
B11	6.15
B12	4.48
B13	1.74
B14	2.42
B15	6.51
B16	4.1
B17	2.81
B18	3
B19	1.25
B20	3.26
B21	5.08
B22	2.49
B23	3.76
B24	5.41
B25	2.05
B26	3.64
B27	5.12
B28	3.94
B29	4.64
B30	4.57
